To fix the notation:
B1: STK4 (residues 11–326) K59R (domain or fragment, human, UniProt Q13043 11-326, looked up)
chain: RRQLKKLDEDSLTKQPEEVFDVLEKLGEGSYGSVYKAIHKETGQIVAIRQVPVESDLQEIIKEISIMQQCDSPHVVKYYGSYFKNTDLWIVMEYCGAGSVSDIIRLRNKTLTEDEIATILQSTLKGLEYLHFMRKIHRDIKAGNILLNTEGHAKLADFGVAGQLTDTMAKRNTVIGTPFWMAPEVIQEIGYNCVADIWSLGITAIEMAEGKPPYADIHPMRAIFMIPTNPPPTFRKPELWSDNFTDFVKQCLVKSPEQRATATQLLQHPFVRSAKGVSILRDLINEAMDVKLKRQESQQREVDQDDEENSEEDEMD
notes: Monomer-dimer equilibrium in solution; dimer in the crystal; also called STK4 KD; source: E. coli BL21 (DE3), purified (Ni-NTA, SEC)
B2: HOIP (residues 697–852) (domain or fragment, UniProt Q96EP0 697-852, looked up)
chain: QECAVCGWALPHNRMQALTSCECTICPDCFRQHFTIALKEKHITDMVCPACGRPDLTDDTQLLSYFSTLDIQLRESLEPDAYALFHKKLTEGVLMRDPKFLWCAQCSFGFIYEREQLEATCPQCHQTFCVRCKRQWEEQHRGRSCEDFQNWKRMND
notes: The limits are printed for the M1-8Ub experiment; for the STK4 experiment the text says only 'the RING1-IBR region of HOIP'; also called HOIP RING1-IBR; RING1-IBR region; source: E. coli BL21 (DE3), purified (glutathione resin, SEC)
B3: HOIP RING1 (residues 697–793) T731A (domain or fragment, UniProt Q96EP0 697-793, looked up)
chain: QECAVCGWALPHNRMQALTSCECTICPDCFRQHFAIALKEKHITDMVCPACGRPDLTDDTQLLSYFSTLDIQLRESLEPDAYALFHKKLTEGVLMRD
notes: source: E. coli BL21 (DE3), purified
B4: STK4 (residues 1–487) K59R (enzyme, human, UniProt Q13043 1-487, looked up)
chain: METVQLRNPPRRQLKKLDEDSLTKQPEEVFDVLEKLGEGSYGSVYKAIHKETGQIVAIRQVPVESDLQEIIKEISIMQQCDSPHVVKYYGSYFKNTDLWIVMEYCGAGSVSDIIRLRNKTLTEDEIATILQSTLKGLEYLHFMRKIHRDIKAGNILLNTEGHAKLADFGVAGQLTDTMAKRNTVIGTPFWMAPEVIQEIGYNCVADIWSLGITAIEMAEGKPPYADIHPMRAIFMIPTNPPPTFRKPELWSDNFTDFVKQCLVKSPEQRATATQLLQHPFVRSAKGVSILRDLINEAMDVKLKRQESQQREVDQDDEENSEEDEMDSGTMVRAVGDEMGTVRVASTMTDGANTMIEHDDTLPSQLGTMVINAEDEEEEGTMKRRDETMQPAKPSFLEYFEQKEKENQINSFGKSVPGPLKNSSDWKIPQDGDYEFLKSWTVEDLQKRLLALDPMMEQEIEEIRQKYQSKRQPILDAIEAKKRRQQNF
notes: The tag could be cut by HRV 3C protease 'if desired'; also called kinase-dead full-length STK4; MST1; source: E. coli BL21 (DE3), purified (Ni-NTA, SEC)
B5: STK4 (residues 1–326) K59R (domain or fragment, human, UniProt Q13043 1-326, looked up)
chain: METVQLRNPPRRQLKKLDEDSLTKQPEEVFDVLEKLGEGSYGSVYKAIHKETGQIVAIRQVPVESDLQEIIKEISIMQQCDSPHVVKYYGSYFKNTDLWIVMEYCGAGSVSDIIRLRNKTLTEDEIATILQSTLKGLEYLHFMRKIHRDIKAGNILLNTEGHAKLADFGVAGQLTDTMAKRNTVIGTPFWMAPEVIQEIGYNCVADIWSLGITAIEMAEGKPPYADIHPMRAIFMIPTNPPPTFRKPELWSDNFTDFVKQCLVKSPEQRATATQLLQHPFVRSAKGVSILRDLINEAMDVKLKRQESQQREVDQDDEENSEEDEMD
notes: also called KD; source: E. coli BL21 (DE3), purified (Ni-NTA, SEC)
B6: HOIP (residues 697–1072) S1066E (domain or fragment, UniProt Q96EP0 697-1072, looked up)
chain: QECAVCGWALPHNRMQALTSCECTICPDCFRQHFTIALKEKHITDMVCPACGRPDLTDDTQLLSYFSTLDIQLRESLEPDAYALFHKKLTEGVLMRDPKFLWCAQCSFGFIYEREQLEATCPQCHQTFCVRCKRQWEEQHRGRSCEDFQNWKRMNDPEYQAQGLAMYLQENGIDCPKCKFSYALARGGCMHFHCTQCRHQFCSGCYNAFYAKNKCPEPNCRVKKSLHGHHPRDCLFYLRDWTALRLQKLLQDNNVMFNTEPPAGARAVPGGGCRVIEQKEVPNGLRDEACGKETPAGYAGLCQAHYKEYLVSLINAHSLDPATLYEVEELETATERYLHVRPQPLAGEDPPAYQARLLQKLTEEVPLGQEIPRRRK
notes: also called phosphomimic S1066E mutant; source: E. coli BL21 (DE3), purified
B7: HOIP (residues 697–1072) (domain or fragment, UniProt Q96EP0 697-1072, looked up)
chain: B6 chain with E370S
notes: also called RING1-IBR-RING2-LDD; HOIP RBR-LDD; source: E. coli BL21 (DE3), purified (glutathione resin, SEC)

Data set [1] concerns the molecule itself. Nature of the data set: AUC; sedimentation velocity, 42,000 rpm, 20 °C, c(s) distribution (SEDFIT); mixtures of HOIP RING2-LDD with STK4 KD at molar ratios 1:1 or 1:5.
For a further data set, the target named is T1, M1-8Ub (UniProt P0CG48 1-76; P0CG48 1-76; P0CG48 1-76; P0CG48 1-76; P0CG48 1-76; P0CG48 1-76; …).
T1 construct: ubiquitin, unit 1 of 8, units joined head to tail by peptide bonds (M1-linked); ubiquitin, unit 2 of 8; ubiquitin, unit 3 of 8; ubiquitin, unit 4 of 8; ubiquitin, unit 5 of 8; ubiquitin, unit 6 of 8; ubiquitin, unit 7 of 8; ubiquitin, unit 8 of 8; also called linear octa-ubiquitin; polyubiquitin chain; source: E. coli BL21 (DE3), purified
The data set can be described thus: SEC; each protein alone and the mixture at matched concentrations on Superdex 200 Increase 10/300 GL or Superdex 75 Increase 10/300 GL; a forward shift or increase of the peak read qualitatively; fractions on SDS-PAGE (Fig. 1c: 20 μM HOIP RING2-LDD, 30 μM STK4 KD, Superdex 75 Increase). The note with it: both partners purified.

A further data set deals with T2, UBE2L3 (human, UniProt P68036 1-154).
T2 construct: UBE2L3 (E2), human; source: E. coli, purified
The data set is described as above. The note with it: both partners purified.

The next data set concerns the target T3, HOIP (residues 480–1072) (UniProt Q96EP0 480-1072).
T3 construct: source: E. coli BL21 (DE3), purified (glutathione resin, SEC)
T3 sequence (looked up): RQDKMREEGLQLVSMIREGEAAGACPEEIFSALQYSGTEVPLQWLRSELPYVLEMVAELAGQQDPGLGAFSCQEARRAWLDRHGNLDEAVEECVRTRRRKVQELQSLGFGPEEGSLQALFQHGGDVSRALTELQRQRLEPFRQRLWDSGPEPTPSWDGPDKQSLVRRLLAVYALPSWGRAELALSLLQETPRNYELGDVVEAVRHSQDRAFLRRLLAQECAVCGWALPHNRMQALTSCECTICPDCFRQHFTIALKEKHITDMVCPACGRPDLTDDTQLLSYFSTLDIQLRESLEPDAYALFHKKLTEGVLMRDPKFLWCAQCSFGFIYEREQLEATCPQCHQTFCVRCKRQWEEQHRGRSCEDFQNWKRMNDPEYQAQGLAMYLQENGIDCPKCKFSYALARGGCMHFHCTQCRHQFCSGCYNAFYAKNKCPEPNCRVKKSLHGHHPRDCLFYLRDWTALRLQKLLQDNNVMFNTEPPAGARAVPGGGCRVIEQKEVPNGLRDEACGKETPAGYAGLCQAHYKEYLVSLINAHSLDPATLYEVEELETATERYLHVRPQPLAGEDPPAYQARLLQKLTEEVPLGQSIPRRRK
The description is as above. The note with it: both partners purified.

The data set “HOIP (residues 697–1072)” addresses B7. The description is as above. The note with it: both partners purified.
A further data set addresses T4, linear di-Ub (M1-2Ub) (UniProt P0CG48 1-76; P0CG48 1-76).
T4 construct: ubiquitin, unit 1 of 2, units joined head to tail by peptide bonds (M1-linked); ubiquitin, unit 2 of 2; source: E. coli BL21 (DE3), purified
The data set is described as above. The note with it: both partners purified.

Another data set deals with T5, linear tetra-Ub (M1-4Ub) (UniProt P0CG48 1-76; P0CG48 1-76; P0CG48 1-76; P0CG48 1-76).
T5 construct: ubiquitin, unit 1 of 4, units joined head to tail by peptide bonds (M1-linked); ubiquitin, unit 2 of 4; ubiquitin, unit 3 of 4; ubiquitin, unit 4 of 4; source: E. coli BL21 (DE3), purified
The data set is described as above. The note with it: both partners purified.

Data set [2] addresses B4. The data set can be described thus: ITC; MicroCal PEAQ-ITC, 25 °C; 20 mM Tris-HCl pH 7.5, 100 mM NaCl, 1 mM DTT; ~50 μM in the cell, ~500 μM in the syringe; one-site binding model. The note with it: both partners purified. On the technique in general: In ITC the heat of successive injections is recorded.

Where a chain is given by its changes, count along the chain named. Numbers in names are those of the source.

T2 sequence (P68036 whole entry): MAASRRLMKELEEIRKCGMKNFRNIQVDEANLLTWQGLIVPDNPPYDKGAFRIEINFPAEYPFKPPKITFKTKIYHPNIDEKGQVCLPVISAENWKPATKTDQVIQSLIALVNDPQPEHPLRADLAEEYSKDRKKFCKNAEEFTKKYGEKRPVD

Turning to B1, the binding result in data set [1] is listed as “binds”.

Consider B2, for which the binding result in the data set with M1-8Ub was “binds”.

Regarding B3, in the data set with UBE2L3, the binding result was “binds”.

Consider B4, for which the binding result in the data set with HOIP (residues 480–1072) was “binds”.

Regarding B5, the binding result with HOIP (residues 697–1072) is recorded as “binds”.

On to B6, for which the binding result with linear di-Ub (M1-2Ub) and with linear tetra-Ub (M1-4Ub) was “binds” throughout.

In data set [2], B7 had a Kd of roughly 102 µM.

Usually Kd stands for the constant that tells how readily two partners part at equilibrium. Low readings indicate higher affinity, high ones lower affinity.

Source of the values: PMC12441119 (Cell Discovery, 2025).
